Values quoted from earlier work in article PMC2882753.

Legend:
His134 = assay: NMR; conditions: 298 K; not stated (no ferricyanide present); oxidized [2Fe-2S] cluster
His154 = assay: NMR; conditions: 298 K; not stated (no ferricyanide present); oxidized [2Fe-2S] cluster

Rieske iron-sulfur protein, soluble fragment (TtRp) (Thermus thermophilus; del1-45;del202-210;W142F)
pKa (His134): 9.24 ± 0.02
pKa (His154): 7.46 ± 0.02
